Measurements from patent publication US8992886B2, “Cyclic peptide analogues for non-invasive imaging of pancreatic beta-cells” (Board of Regents, the University of Texas System, priority 2009, dated 2015).
Bridge positions count the residues as written; N and C are the ends. Square brackets hold non-standard residues; d marks the D form. Peptide text beside a SMILES is read from it. * marks the point of attachment. X1 = O=C(O)CN1CCN(CC(=O)O)CCN(CC(=O)NCCN2C(=O)CC(*)C2=O)CCN(CC(=O)O)CC1; Ahx = NCCCCCC(=O)O

How the values were obtained:
[1] = in vivo; design: species or system Sprague-Dawley rats; conditions: Sprague-Dawley, rat, iv, total radioactivity
Protocol: Given this encouraging in vitro result, the tissue distribution of both conjugates in normal Sprague-Dawley rats was examined. […] The radiolabeled compounds were diluted with saline and be injected into rats (n=4 at each time point) via the tail vein. The animal number at each time point was chosen for statistical analysis. […] At the selected post-injection time points, animals were sacrificed, and organs of interest removed, weighed, and counted. The percent injected dose per gram (% ID/g) and percent injected dose per organ (% ID/organ) was calculated by comparison to a weighed, counted standard. Pharmacokinetic parameters were estimated by using either one- or two-compartment model.

[2] = biological target: T1, GLP-1R in pancreas (Mus musculus, UniProt O35659); assay: Dynamic PET/CT imaging of ^64Cu-labeled peptides in normal mice; conditions: mouse, in vivo
T1 sequence (O35659 22-463): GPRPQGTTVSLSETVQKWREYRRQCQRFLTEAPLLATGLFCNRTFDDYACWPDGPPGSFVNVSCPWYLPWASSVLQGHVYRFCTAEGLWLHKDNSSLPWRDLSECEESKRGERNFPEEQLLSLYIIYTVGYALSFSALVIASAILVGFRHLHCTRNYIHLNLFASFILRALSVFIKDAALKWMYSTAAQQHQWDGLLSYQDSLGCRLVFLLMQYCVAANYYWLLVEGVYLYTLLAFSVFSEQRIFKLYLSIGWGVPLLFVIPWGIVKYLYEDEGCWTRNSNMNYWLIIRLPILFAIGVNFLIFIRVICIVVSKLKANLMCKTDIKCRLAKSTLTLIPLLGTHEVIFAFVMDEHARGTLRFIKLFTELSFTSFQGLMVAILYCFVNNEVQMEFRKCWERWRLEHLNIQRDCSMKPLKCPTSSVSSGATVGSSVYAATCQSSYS
Protocol: Dynamic PET/CT scans were performed on a Siemens Inveon PET-CT multimodality system using normal male BABL/c mice (n=3 per peptide). Post-PET biodistribution was performed to verify the imaging findings.
In addition, D-Ala^8 was also introduced to prevent the degradation by DPP-IV.
FIG. 9 are graphs that show a comparison of contrast in pancreatic, liver and kidney microPET scans. […] Quantitative analysis based on microPET/CT 0-60 min dynamic scans, animal model: Normal BABL/c mice at 6-8 wks.

[3] = biological target: GLP-1R (Homo sapiens, UniProt P43220); assay: cAMP accumulation in HEK293 cells stably expressing GLP-1R-GFP; format: cell-based; design: GFP; expressed in transfected cells; host or cells: HEK293
Excerpt: In all cases, reactions were stopped with 1.2 M trichloroacetic acid and cAMP was isolated by the two column chromatographic method.

Sequence of GLP-1R (P43220 24-463): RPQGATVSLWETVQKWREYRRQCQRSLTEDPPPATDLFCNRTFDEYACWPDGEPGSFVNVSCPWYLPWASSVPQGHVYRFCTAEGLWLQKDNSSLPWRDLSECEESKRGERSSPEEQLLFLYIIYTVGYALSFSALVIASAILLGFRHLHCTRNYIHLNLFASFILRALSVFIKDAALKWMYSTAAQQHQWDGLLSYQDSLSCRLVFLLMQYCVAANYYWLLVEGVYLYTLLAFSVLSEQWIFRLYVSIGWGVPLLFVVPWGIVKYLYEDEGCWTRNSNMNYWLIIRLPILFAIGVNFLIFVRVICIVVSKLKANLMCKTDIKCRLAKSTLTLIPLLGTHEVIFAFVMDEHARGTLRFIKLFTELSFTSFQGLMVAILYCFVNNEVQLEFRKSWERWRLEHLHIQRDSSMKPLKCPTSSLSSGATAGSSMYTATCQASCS

## CC[C@H](C)[C@H](NC(=O)[C@H](Cc1ccccc1)NC(=O)[C@H](CCC(=O)O)NC(=O)[C@H](CCCCN)NC(=O)[C@H](C)NC(=O)[C@H](C)NC(=O)[C@H](CCC(N)=O)NC(=O)CNC(=O)[C@H](CCC(=O)O)NC(=O)[C@H](CC(C)C)NC(=O)[C@H](Cc1ccc(O)cc1)NC(=O)[C@H](CO)NC(=O)[C@H](CO)NC(=O)[C@@H](NC(=O)[C@H](CC(=O)O)NC(=O)[C@H](CO)NC(=O)[C@@H](NC(=O)[C@H](Cc1ccccc1)NC(=O)[C@@H](NC(=O)CNC(=O)[C@H](CCC(=O)O)NC(=O)[C@@H](C)NC(=O)[C@@H](N)Cc1c[nH]cn1)[C@@H](C)O)[C@@H](C)O)C(C)C)C(=O)N[C@@H](C)C(=O)N[C@@H](Cc1c[nH]c2ccccc12)C(=O)N[C@@H](CC(C)C)C(=O)N[C@H](C(=O)N[C@@H](CCCCN)C(=O)NCC(=O)N[C@@H](CCCNC(=N)N)C(=O)NCCCCCC(=O)N[C@@H](CSC1CC(=O)N(CCNC(=O)CN2CCN(CC(=O)O)CCN(CC(=O)O)CCN(CC(=O)O)CC2)C1=O)C(N)=O)C(C)C (stereo partly drawn) (64Cu complex, metal not drawn) [D-GLP-1, [D-Ala^8]GLP-1-Ahx-Cys]
[1]; % ID/g blood
  tissue uptake at 20 min: 0.91 ± 0.39 %ID/g
  tissue uptake at 1 h: 0.41 ± 0.07 %ID/g
  tissue uptake at 4 h: 0.45 ± 0.02 %ID/g
  tissue uptake at 24 h: 0.14 ± 0.08 %ID/g
[1]; % ID/g fat
  tissue uptake at 20 min: 0.44 ± 0.6 %ID/g
  tissue uptake at 1 h: 0.28 ± 0.4 %ID/g
  tissue uptake at 4 h: 0.96 ± 0.88 %ID/g
  tissue uptake at 24 h: 0.78 ± 0.14 %ID/g
[1]; % ID/g heart
  tissue uptake at 20 min: 0.64 ± 0.16 %ID/g
  tissue uptake at 1 h: 0.46 ± 0.21 %ID/g
  tissue uptake at 4 h: 0.15 ± 0.09 %ID/g
  tissue uptake at 24 h: 0.04 ± 0.05 %ID/g
[1]; % ID/g kidney
  tissue uptake at 20 min: 19.6 ± 0.91 %ID/g
  tissue uptake at 1 h: 28.2 ± 5.83 %ID/g
  tissue uptake at 4 h: 30.7 ± 9.53 %ID/g
  tissue uptake at 24 h: 46.1 ± 10.9 %ID/g
[1]; % ID/g large int
  tissue uptake at 20 min: 0.45 ± 0.2 %ID/g
  tissue uptake at 1 h: 0.67 ± 0.7 %ID/g
  tissue uptake at 4 h: 0.77 ± 0.18 %ID/g
  tissue uptake at 24 h: 2.01 ± 0.02 %ID/g
[1]; % ID/g liver
  tissue uptake at 20 min: 2.69 ± 1.16 %ID/g
  tissue uptake at 1 h: 1.17 ± 0.45 %ID/g
  tissue uptake at 4 h: 1.56 ± 0.14 %ID/g
  tissue uptake at 24 h: 2.26 ± 0.16 %ID/g
[1]; % ID/g lung
  tissue uptake at 20 min: 4.03 ± 1.64 %ID/g
  tissue uptake at 1 h: 0.91 ± 0.12 %ID/g
  tissue uptake at 4 h: 0.77 ± 0.18 %ID/g
  tissue uptake at 24 h: 1.21 ± 0.3 %ID/g
[1]; % ID/g muscle
  tissue uptake at 20 min: 0.3 ± 0.15 %ID/g
  tissue uptake at 1 h: 0.63 ± 0.05 %ID/g
  tissue uptake at 4 h: 0.11 ± 0.13 %ID/g
  tissue uptake at 24 h: 0.39 ± 0.29 %ID/g
[1]; % ID/g pancreas
  tissue uptake at 20 min: 3.58 ± 0.56 %ID/g
  tissue uptake at 1 h: 2.19 ± 0.98 %ID/g
  tissue uptake at 4 h: 1.18 ± 0.12 %ID/g
  tissue uptake at 24 h: 0.99 ± 0.05 %ID/g
[1]; % ID/g small int
  tissue uptake at 20 min: 1.07 ± 0.73 %ID/g
  tissue uptake at 1 h: 1.02 ± 0.75 %ID/g
  tissue uptake at 4 h: 0.5 ± 0.25 %ID/g
  tissue uptake at 24 h: 0.91 ± 0.31 %ID/g
[1]; % ID/g spleen
  tissue uptake at 20 min: 0.22 ± 0.05 %ID/g
  tissue uptake at 1 h: 0.23 ± 0.05 %ID/g
  tissue uptake at 4 h: 0.26 ± 0.2 %ID/g
  tissue uptake at 24 h: 0.52 ± 0.18 %ID/g
[1]; % ID/g stomach
  tissue uptake at 20 min: 1.02 ± 0.51 %ID/g
  tissue uptake at 1 h: 0.49 ± 0.31 %ID/g
  tissue uptake at 4 h: 0.23 ± 0.07 %ID/g
  tissue uptake at 24 h: 0.25 ± 0.17 %ID/g
[2]
  clearance from the pancreas: < 10 min

## CC[C@H](C)[C@H](NC(=O)[C@H](Cc1ccccc1)NC(=O)[C@H](CCC(=O)O)NC(=O)[C@H](CCCCN)NC(=O)[C@H](C)NC(=O)[C@H](C)NC(=O)[C@H](CCC(N)=O)NC(=O)CNC(=O)[C@H](CCC(=O)O)NC(=O)[C@@H]1CCCCNC(=O)CC[C@H](NC(=O)[C@H](CC(=O)O)NC(=O)[C@H](CO)NC(=O)[C@@H](NC(=O)[C@H](Cc2ccccc2)NC(=O)[C@@H](NC(=O)CNC(=O)[C@H](CCC(=O)O)NC(=O)[C@@H](C)NC(=O)[C@@H](N)Cc2c[nH]cn2)[C@@H](C)O)[C@@H](C)O)C(=O)N[C@@H](CO)C(=O)N[C@@H](CO)C(=O)N[C@@H](Cc2ccc(O)cc2)C(=O)N1)C(=O)N[C@H]1CCC(=O)NCCCC[C@@H](C(=O)NCC(=O)N[C@@H](CCCNC(=N)N)C(=O)NCCCCCC(=O)N[C@@H](CSC2CC(=O)N(CCNC(=O)CN3CCN(CC(=O)O)CCN(CC(=O)O)CCN(CC(=O)O)CC3)C2=O)C(N)=O)NC(=O)[C@H](C(C)C)NC(=O)[C@H](CC(C)C)NC(=O)[C@H](Cc2c[nH]c3ccccc23)NC1=O (stereo partly drawn) [EM2196, HXEGTFTSDESSYKEGQAAKEFIEWLVKG R, wherein X is D-Ala] (H-H[dA]EGTFTSDESSYKEGQAAKEFIEWLVKGR[Ahx]C(X1)-NH2; lactam 10-14, 24-28)
[3]
  EC50: ~1 nM

## CC[C@H](C)[C@H](NC(=O)[C@H](Cc1ccccc1)NC(=O)[C@H](CCC(=O)O)NC(=O)[C@H](CCCCN)NC(=O)[C@H](C)NC(=O)[C@H](C)NC(=O)[C@H](CCC(N)=O)NC(=O)CNC(=O)[C@H](CCC(=O)O)NC(=O)[C@H](CC(C)C)NC(=O)[C@H](Cc1ccc(O)cc1)NC(=O)[C@H](CO)NC(=O)[C@H](CO)NC(=O)[C@@H](NC(=O)[C@H](CC(=O)O)NC(=O)[C@H](CO)NC(=O)[C@@H](NC(=O)[C@H](Cc1ccccc1)NC(=O)[C@@H](NC(=O)CNC(=O)[C@H](CCC(=O)O)NC(=O)[C@H](C)NC(=O)[C@@H](N)Cc1c[nH]cn1)[C@@H](C)O)[C@@H](C)O)C(C)C)C(=O)N[C@@H](C)C(=O)N[C@@H](Cc1c[nH]c2ccccc12)C(=O)N[C@@H](CC(C)C)C(=O)N[C@H](C(=O)N[C@@H](CCCCN)C(=O)NCC(=O)N[C@@H](CCCNC(=N)N)C(=O)NCCCCCC(=O)N[C@@H](CSC1CC(=O)N(CCNC(=O)CN2CCN(CC(=O)O)CCN(CC(=O)O)CCN(CC(=O)O)CC2)C1=O)C(N)=O)C(C)C (stereo partly drawn) (64Cu complex, metal not drawn) [L-GLP-1, [Ala^8]GLP-1-Ahx-Cys]
[1]; % ID/g blood
  tissue uptake at 20 min: 0.78 ± 0.14 %ID/g
  tissue uptake at 1 h: 0.47 ± 0.03 %ID/g
  tissue uptake at 4 h: 0.62 ± 0.15 %ID/g
  tissue uptake at 24 h: 0.07 ± 0.07 %ID/g
[1]; % ID/g fat
  tissue uptake at 20 min: 0.35 ± 0.1 %ID/g
  tissue uptake at 4 h: 0.72 ± 0.57 %ID/g
  tissue uptake at 24 h: 0.01 ± 0.01 %ID/g
[1]; % ID/g heart
  tissue uptake at 20 min: 0.39 ± 0.23 %ID/g
  tissue uptake at 1 h: 0.11 ± 0.1 %ID/g
  tissue uptake at 4 h: 0.2 ± 0.06 %ID/g
[1]; % ID/g kidney
  tissue uptake at 20 min: 30.6 ± 6.76 %ID/g
  tissue uptake at 1 h: 34.3 ± 5.42 %ID/g
  tissue uptake at 4 h: 41.4 ± 4.98 %ID/g
  tissue uptake at 24 h: 45.8 ± 2.94 %ID/g
[1]; % ID/g large int
  tissue uptake at 20 min: 0.19 ± 0.1 %ID/g
  tissue uptake at 1 h: 0.04 ± 0.04 %ID/g
  tissue uptake at 4 h: 0.67 ± 0.47 %ID/g
  tissue uptake at 24 h: 4.83 ± 1.16 %ID/g
[1]; % ID/g liver
  tissue uptake at 20 min: 1.13 ± 0.42 %ID/g
  tissue uptake at 1 h: 2.03 ± 0.25 %ID/g
  tissue uptake at 4 h: 3.34 ± 0.58 %ID/g
  tissue uptake at 24 h: 1.43 ± 0.21 %ID/g
[1]; % ID/g lung
  tissue uptake at 20 min: 1.92 ± 0.08 %ID/g
  tissue uptake at 1 h: 0.9 ± 0.14 %ID/g
  tissue uptake at 4 h: 1.02 ± 0.13 %ID/g
  tissue uptake at 24 h: 0.83 ± 0.18 %ID/g
[1]; % ID/g muscle
  tissue uptake at 20 min: 0.12 ± 0.01 %ID/g
  tissue uptake at 24 h: 0.08 ± 0.1 %ID/g
[1]; % ID/g pancreas
  tissue uptake at 20 min: 0.34 ± 0.14 %ID/g
  tissue uptake at 1 h: 0.11 ± 0.11 %ID/g
  tissue uptake at 4 h: 0.4 ± 0.56 %ID/g
  tissue uptake at 24 h: 0.03 ± 0.06 %ID/g
[1]; % ID/g small int
  tissue uptake at 20 min: 0.38 ± 0.21 %ID/g
  tissue uptake at 1 h: 0.45 ± 0.24 %ID/g
  tissue uptake at 4 h: 0.93 ± 0.43 %ID/g
  tissue uptake at 24 h: 0.42 ± 0.16 %ID/g
[1]; % ID/g spleen
  tissue uptake at 20 min: 0.28 ± 7 %ID/g
  tissue uptake at 1 h: 0.18 ± 0.08 %ID/g
  tissue uptake at 4 h: 0.4 ± 0.35 %ID/g
  tissue uptake at 24 h: 0.38 ± 0.47 %ID/g
[1]; % ID/g stomach
  tissue uptake at 20 min: 0.64 ± 0.28 %ID/g
  tissue uptake at 1 h: 0.46 ± 0.28 %ID/g
  tissue uptake at 4 h: 0.5 ± 0.15 %ID/g
  tissue uptake at 24 h: 0.11 ± 0.04 %ID/g
